In US20110294219A1:

B1: human foamy virus (HFV) Bet protein, P89873 1-482 (protein)
chain: MDSYEKEESVASTSGIQDLQTLSELVGPENAGEGELTIAEEPEENPRRPRRYTKREVKCVSYHAYKEIEDKHPQHIKLQDWIPTPEEMIAQKVQNQDLGTILSFDVTCLKSITSLGRNDPGDDPSIMSHVLPVVTPWPMSQDHYAPTLFGILDRYYQGYLKSPATYQTWKFTCQVDPSGKRFMETQFWVPPLGQVNIQFYKNYQILTCCQAVDPFANIFHGTDEEMFDIDSGPDVWCSPSLCFKVIYEGAMGQKQEQKTWLCRLGHGHRMGACDYRKVDLYAMRQGKENPYGDRGDAALQYAYQVKRGCKAGCLASPVLNYKALQFHRTIMADFTNPRIGEGHLAHGYQAAMEAYGPQRGSNEERVWWNVTRNQGKQGGEYYREGGEEPHYPNTPAPHRRTWDERHKVLKLSSFATPSDIQRWTTKALPYGWKVVTESGNDYTSRRKIRTLTEMTQDEIRKRWESGYCDPFIDSGSDSDGPF

Legend:
Test in all cases: cell-based or functional assay
[1] = molecular target: C-terminal HA-tagged feline APOBEC3 (feline)
[2] = molecular target: feline APOBEC3 (feline)
[3] = molecular target: different primate APOBEC3 proteins (e.g. from chimpanzee, African green monkey, human)

Chain of C-terminal HA-tagged feline APOBEC3 (feline) (Q4VDN5 whole entry): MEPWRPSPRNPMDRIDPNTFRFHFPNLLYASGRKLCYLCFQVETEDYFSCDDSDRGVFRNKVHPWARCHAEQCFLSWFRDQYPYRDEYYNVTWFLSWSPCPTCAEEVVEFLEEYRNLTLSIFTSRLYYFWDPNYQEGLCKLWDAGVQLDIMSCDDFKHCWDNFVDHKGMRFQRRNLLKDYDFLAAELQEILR

Molecule	G→A exchanges per 100 nucleotides in FFV genomes with fe3 coexpressed (G→A exchanges per 100 nucleotides) [1]	reduction of FFV titer (FeFAB reporter cells) on cotransfection of pfe3 [2] [fold]	Bet-mediated rescue of marker gene transduction in the presence of different APOBEC3 molecules [3] [fold]
FFV Bet truncated after amino acid 116 (mutant pFeFV-BBtr)	1.05		
feline foamy virus (FFV) Bet protein (from UniProt Q8NFT8)	0.05	< 10	
B1			< 100
